12 molecules from EP4585619A1 (Cichlid Inc., dated 2025) can be followed below.

Assay [1] concerns the target T1, human VISTA protein (hVISTA-Fc, R&D Systems, Cat. No. 7126-B7) (human, UniProt Q9H7M9 33-194).
T1 construct: Bought recombinant protein; not shown: Fc part of the bought fusion protein
T1 sequence (looked up): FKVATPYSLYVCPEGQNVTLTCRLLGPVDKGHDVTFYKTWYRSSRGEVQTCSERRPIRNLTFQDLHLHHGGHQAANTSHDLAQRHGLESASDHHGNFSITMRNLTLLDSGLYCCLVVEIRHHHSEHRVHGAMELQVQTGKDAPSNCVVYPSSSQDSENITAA
Briefly: ELISA on coated hVISTA-Fc, antibody at 100 ng per well.

The target in assay [2] is T2, mouse VISTA protein (mVISTA-Fc, R&D Systems, Cat. No. 7005-B7) (mouse, UniProt Q9D659 33-191).
T2 construct: Bought recombinant protein; not shown: Fc part of the bought fusion protein
T2 sequence (looked up): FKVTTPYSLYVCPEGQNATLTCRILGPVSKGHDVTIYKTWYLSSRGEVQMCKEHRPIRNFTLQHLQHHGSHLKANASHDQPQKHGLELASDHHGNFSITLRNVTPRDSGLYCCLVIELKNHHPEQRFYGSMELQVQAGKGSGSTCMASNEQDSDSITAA
The assay can be described thus: ELISA on coated mVISTA-Fc. In general terms: In an ELISA, binding on a coated surface is turned into a signal by an enzyme label.

The target in assay [3] is T3, human VISTA protein overexpressed in the NIH/3T3 cell line (human, UniProt Q9H7M9 33-311).
T3 construct: whole, on cells; Gene cloned into pCMV3-C-FLAG (Sino Biological), so a C-terminal FLAG tag is likely; On whole cells in ELISA and flow cytometry; as sonicated lysate in immunoprecipitation; as reduced, boiled RIPA lysate in the western blot; also called VISTA/NIH/3T3 cell line; VISTA-expressing cell line
T3 sequence (looked up): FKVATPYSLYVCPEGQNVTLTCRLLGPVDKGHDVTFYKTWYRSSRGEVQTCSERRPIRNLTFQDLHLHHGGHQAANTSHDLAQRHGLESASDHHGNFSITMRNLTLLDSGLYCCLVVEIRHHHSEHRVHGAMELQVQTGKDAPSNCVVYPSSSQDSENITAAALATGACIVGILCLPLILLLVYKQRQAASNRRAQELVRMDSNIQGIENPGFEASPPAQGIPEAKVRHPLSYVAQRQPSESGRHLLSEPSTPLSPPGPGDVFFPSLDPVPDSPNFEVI
Briefly: cell ELISA of scFv on VISTA-expressing NIH/3T3 cells, anti-HA HRP.

B1: 4A3 full IgG1 antibody (antibody, V domains shown)
VH: EVQLLESGGGLVQPGGSLRLSCAASGFTFSNYYMHWVRQAPGKGLEWVSSISFTGSTSYNPSLKSRFTISRDNSKNTLYLQMNSLRAEDTAVYYCARLGIPFFTYLDYWGQGTLVTVSS
VL: QSVLTQPPSASGTPGQRVTISCGGNNIGSKSVHWYQQLPGTAPKLLIYEDTERPSGVSDRFSGSKSGTSASLAISGLRSEDEADYYCQAWDSSTVVFGGGTKLTVLR
notes: scFv clone converted to full IgG1, made in CHO-S cells; also called anti-VISTA antibody
On to B1, for which the binding result is listed as “binds” in assay [1] and “no binding (tested: 100 ng per well)” in assay [2].

B2: 4A3 scFv (scFv, V domains shown)
VH: EVQLLESGGGLVQPGGSLRLSCAASGFTFSNYYMHWVRQAPGKGLEWVSSISFTGSTSYNPSLKSRFTISRDNSKNTLYLQMNSLRAEDTAVYYCARLGIPFFTYLDYWGQGTLVTVSS
VL: QSVLTQPPSASGTPGQRVTISCGGNNIGSKSVHWYQQLPGTAPKLLIYEDTERPSGVSDRFSGSKSGTSASLAISGLRSEDEADYYCQAWDSSTVVFGGGTKLTVL
notes: One-chain scFv with an HA tag from a synthetic human scFv library, made in E. coli
For B2, in assay [3], the binding result was “binds”.

B3: 4F2 scFv (scFv, V domains shown)
VH: EVQLLESGGGLVQPGGSLRLSCAASGFTFSDYYMHWVRQAPGKGLEWVSEIIPIFDTANYAQKFQDRFTISRDNSKNTLYLQMNSLRAEDTAVYYCARSTGDYFDYWGQGTLVTVSS
VL: QSVLTQPPSASGTPGQRVTISCSGDKLGNKYTSWYQQLPGTAPKLLIYDNNKRPSGVPDRFSGSKSGTSASLAISGLRSEDEADYYCGTWDSSLSAYVFGGGTKLTVL
notes: as for B2
Regarding B3, in assay [3], the binding result is listed as “binds”.

B4: 4F2 full IgG1 antibody (antibody, V domains shown)
VH: EVQLLESGGGLVQPGGSLRLSCAASGFTFSDYYMHWVRQAPGKGLEWVSEIIPIFDTANYAQKFQDRFTISRDNSKNTLYLQMNSLRAEDTAVYYCARSTGDYFDYWGQGTLVTVSS
VL: QSVLTQPPSASGTPGQRVTISCSGDKLGNKYTSWYQQLPGTAPKLLIYDNNKRPSGVPDRFSGSKSGTSASLAISGLRSEDEADYYCGTWDSSLSAYVFGGGTKLTVLR
notes: as for B1
For B4, the binding result in assay [1] is listed as “binds”; in assay [2], “no binding (tested: 100 ng per well)”.

B5: 4G3 full IgG1 antibody (antibody, V domains shown)
VH: EVQLLESGGGLVQPGGSLRLSCVASGFTFSEKSIHWVRQAPGKGLEWVSGTSANTGNTYYADSVKGRFTISRDNSKNTLYLQMNSLRAEDTAVYYCAHHNWAGYFDYWGQGTLVTVSS
VL: EIVLTQSPGILSLSPGERATLSCQASHAISNYINWYQQKPGQAPRLLIYDASNRATGIPDRFSGSGSGTDFTLTISRLEPEDFAVYYCQQSNSFPYTFGQGTKVEIKR
notes: as for B1
Regarding B5, the binding result is reported as “binds” in assay [1] and “no binding (tested: 100 ng per well)” in assay [2].

B6: 4G3 scFv (scFv, V domains shown)
VH: EVQLLESGGGLVQPGGSLRLSCVASGFTFSEKSIHWVRQAPGKGLEWVSGTSANTGNTYYADSVKGRFTISRDNSKNTLYLQMNSLRAEDTAVYYCAHHNWAGYFDYWGQGTLVTVSS
VL: EIVLTQSPGILSLSPGERATLSCQASHAISNYINWYQQKPGQAPRLLIYDASNRATGIPDRFSGSGSGTDFTLTISRLEPEDFAVYYCQQSNSFPYTFGQGTKVEIK
notes: as for B2
Consider B6, for which the binding result in assay [3] is “binds”.

B7: 4H2 full IgG1 antibody (antibody, V domains shown)
VH: EVQLLESGGGLVQPGGSLRLSCAASGFTFSTAWMSWVRQAPGKGLEWVSRVNPSDSHTDYSPSFQDRFTISRDNSKNTLYLQMNSLRAEDTAVYYCARVPPGYGFDIWGQGTLVTVSS
VL: EIVLTQSPGTLSLSPGERATLSCQASQDITNYLNWYQQKPGQAPRLLIYDASNRATGIPDRFSGSGSGTDFTLTISRLEPEDFAVYYCQQSYSTPFTFGQGTKVEIKR
notes: as for B1
As to B7, the figures for the binding result in assay [1] and in assay [2] were “binds” and “no binding (tested: 100 ng per well)”, respectively.

B8: 4A2 full IgG1 antibody (antibody, V domains shown)
VH: EVQLLESGGGLVQPGGSLRLSCAASGFTFSNYAMSWVRQAPGKGLEWVSEISHSGTTNYNPSLKSRFTISRDNSKNTLYLQMNSLRAEDTAVYYCTRAIWGFDYWGQGTLVTVSS
VL: QSVLTQPPSASGTPGQRVTISCSRENIGSRSVHWYQQLPGTAPKLLIYDNNERASGVPNRFSGSKSGTSASLAISGLRSEDEADYYCQAWDSSTAVFGGGTKLTVLR
notes: scFv clone converted to full IgG1, made in CHO-S cells; also called 4A2 antibody; anti-VISTA antibody
For the molecule B8, the binding result was “binds” in assay [1] and “no binding (tested: 100 ng per well)” in assay [2].

B9: 4A2 scFv (scFv, V domains shown)
VH: EVQLLESGGGLVQPGGSLRLSCAASGFTFSNYAMSWVRQAPGKGLEWVSEISHSGTTNYNPSLKSRFTISRDNSKNTLYLQMNSLRAEDTAVYYCTRAIWGFDYWGQGTLVTVSS
VL: QSVLTQPPSASGTPGQRVTISCSRENIGSRSVHWYQQLPGTAPKLLIYDNNERASGVPNRFSGSKSGTSASLAISGLRSEDEADYYCQAWDSSTAVFGGGTKLTVL
notes: as for B2
Take B9: in assay [3], the binding result is on record as “binds”.

B10: 4D2 scFv (scFv, V domains shown)
VH: EVQLLESGGGLVQPGGSLRLSCAASGFTFSSYWIAWVRQAPGKGLEWVSTISGSGGYTYYAESVKGRFTISRDNSKNTLYLQMNSLRAEDTAVYYCARDSSGWLNYWGQGTLVTVSS
VL: EIVLTQSPGTLSLSPGERATLSCRASQSITSHLAWYQQKPGQAPRLLIYDASNRATGIPDRFSGSGSGTDFTLTISRLEPEDFAVYYCQQYNNWPPITFGQGTKVEIK
notes: as for B2
As for B10, the binding result in assay [3] is listed as “binds”.

B11: 4D2 full IgG1 antibody (antibody, V domains shown)
VH: EVQLLESGGGLVQPGGSLRLSCAASGFTFSSYWIAWVRQAPGKGLEWVSTISGSGGYTYYAESVKGRFTISRDNSKNTLYLQMNSLRAEDTAVYYCARDSSGWLNYWGQGTLVTVSS
VL: EIVLTQSPGTLSLSPGERATLSCRASQSITSHLAWYQQKPGQAPRLLIYDASNRATGIPDRFSGSGSGTDFTLTISRLEPEDFAVYYCQQYNNWPPITFGQGTKVEIKR
notes: as for B1
With B11, the binding result in assay [1] was “binds”; in assay [2] it was “no binding (tested: 100 ng per well)”.

B12: 4H2 scFv (scFv, V domains shown)
VH: EVQLLESGGGLVQPGGSLRLSCAASGFTFSTAWMSWVRQAPGKGLEWVSRVNPSDSHTDYSPSFQDRFTISRDNSKNTLYLQMNSLRAEDTAVYYCARVPPGYGFDIWGQGTLVTVSS
VL: EIVLTQSPGTLSLSPGERATLSCQASQDITNYLNWYQQKPGQAPRLLIYDASNRATGIPDRFSGSGSGTDFTLTISRLEPEDFAVYYCQQSYSTPFTFGQGTKVEIK
notes: as for B2
With B12, the binding result in assay [3] was “binds”.
